Results reported in patent US12258584B2, “Methods and systems for converting precursor cells into intestinal tissues through directed differentiation” (Children's Hospital Medical Center, priority 2010, dated 2025).
Entries after “also recorded” stand apart in the source; their conditions may differ.

Tests used:
Assay type in all cases: cell-based, human
[1] = test system: iPSC3.4; experiment: Affymetrix microarray analysis of transcript levels during DE formation; conditions: 3-day activin treated vs undifferentiated cultures, label = gene symbol of the transcript
Experimental: (§1) For microarray analysis, RNA was isolated from undifferentiated and 3-day activin treated hESC and iPSC cultures and used create target DNA for hybridization to Affymetrix Human 1.0 Gene ST Arrays using standard procedures (Affymetrix, Santa Clara, CA). Independent biological triplicates were performed for each cell line and condition. Affymetrix microarray Cel files were subjected to Robust Multichip Average (RMA) normalization in GeneSpring 10.1. Probe sets were first filtered for those that are overexpressed or underexpressed and then subjected to statistical analysis for differential expression by 3 fold or more between undifferentiated and differentiated cultures with p<0.05 using the Students T-test. Log 2 gene expression ratios were then subjected to hierachical clustering using the standard correlation distance metric as implemented in GeneSpring.

[2] = test system: hESC-H9; experiment: as above; conditions: 3-day activin treated vs undifferentiated cultures, label = gene symbol of the transcript
Experimental: (§2) FIGS. 6a and 6b illustrate exemplary embodiments in accordance with the present invention, depicting characterization of DE formation from hESC and iPSC lines by immuno-fluorescence (IF) and Microarray analysis. (a) Undifferentiated hESCs stained with the pluripotency marker OCT4 (green) were treated for 3 days with ActivinA. […] (b) Transcriptional profile of DE induction. hESC-H9 and iPSC lines 3.5, 3.6 and 3.12 were analyzed before and after DE formation (activin differentiation) by Affymetrix DNA microarray analysis.
as §1

[3] = test system: iPSC line 3.12; experiment: as above; conditions: 3-day activin treated vs undifferentiated cultures, label = gene symbol of the transcript
Experimental: as §2, §1

[4] = test system: H9-HES cells differentiated into definitive endoderm; experiment: Posteriorization of definitive endoderm: foregut (ALB, PDX1) and hindgut (CDX2) marker expression by RT-qPCR and immunofluorescence; conditions: DE treated 24-48 hours; up to 500 ng/ml; RT-qPCR relative to no growth factor control
Experimental: Differentiation of DE in Permissive Media (Differentiation Protocol for FIG. 1). After differentiation into definitive endoderm, cells were incubated in DMEM/F12 plus 2% defined fetal bovine serum (dFBS) with either 0, 50, or 500 ng/ml of FGF4 and/or 0, 50, or 500 ng/ml of Wnt3a (R&D Systems) for 6, 48, or 96 hours. Cultures were then grown in permissive media consisting of DMEM plus 10% fetal bovine serum (FBS) for an additional 7 days.
FIGS. 1a through 1d illustrate exemplary embodiments of the present invention. FGF4 and Wnt3a act synergistically in a temporal and dose-dependent manner to specify stable posterior endoderm fate. ActivinA (100 ng/ml) was used to differentiate H9-HES cells into definitive endoderm (DE). DE was treated with the posteriorizing factors FGF4 (50, 500 ng), Wnt3a (50, 500 ng) or both for 6, 48 or 96 hours. Cells were then cultured in a permissive medium without growth factors for an additional seven days and analyzed for expression of foregut markers (ALB, PDX1) and the hindgut marker (CDX2) by RT-qPCR (a) and immunofluorescence (b-d). FGF4/Wnt-mediated changes in marker expression in (a) is relative to 3-day activin treated DE cultures that were grown for identical lengths of time in the absence of FGF4 or Wnt3a (control). […] Error bars denote standard deviation of triplicates. Significance is shown by; * (p<0.05), ^ (p<0.001), # (p<0.0001).
FIGS. 7a and 7b illustrate exemplary embodiments in accordance with the present invention, depicting time and concentration dependent induction of CDX2 by FGF4 and Wnt3a. (a) FGF4 and Wnt3a up-regulate CDX2 in a concentration dependant manner. 3-day ActivinA treated hESCs were treated for 48 hours with Wnt3a at 50 ng/ml or 500 ng/ml or FGF4 at 50 ng/ml or 500 ng/ml, or increasing concentrations of FGF4+Wnt3a. Cells were analyzed after 48 hours of treatment. […] CDX2 expression was normalized to the internal control beta-tubulin, and is shown relative to a 48 hour control cultured in the absence of growth factors. (b) FGF4 and Wnt3a up-regulate CDX2 in a time dependant manner. 48 hours of exposure to FGF4+Wnt3a was required for the most robust induction of CDX2. All time points shown are set relative to a 0 hour no growth factor control. 500 ng/ml of FGF4, Wnt3a or FGF4+Wnt3a was used for all time points. Note that 24 hour and 48 controls, in the absence of growth factors, show a significant and spontaneous up-regulation of CDX2. Error bars denote standard deviation of triplicates. Significance is shown by; * (p<0.05)
RNA was isolated using the Nucleospin II RNA isolation kit (Clonetech). […] Finally, qPCR was carried out using Quantitect SybrGreen MasterMix (Qiagen) on a Chromo4 Real-Time PCR (BioRad). […]

[5] = test system: H9 hESCs; experiment: Hindgut spheroid formation from hESC-H9 definitive endoderm after growth factor treatment; conditions: for Average # organoids per well / Total # organoids (# organoids/wells counted): hESC-H9 definitive endoderm
Experimental: (§3) Differentiation of PSCs into Definitive Endoderm (DE). Differentiation into Definitive Endoderm was carried out as previously described. Briefly, a 3 day ActivinA (R&D systems) differentiation protocol was used. Cells were treated with ActivinA (100 ng/ml) for three consecutive days in RPMI 1640 media (Invitrogen) with increasing concentrations of 0%, 0.2%, 2% HyClone defined FBS (dFBS) (Thermo Scientific).
(§4) The following tables illustrate the effects of growth factor treatment of hESCs and iPSCs. Generation of hindgut spheroids was tracked for (Table 1A) days 2-5 following growth factor treatment for H9 hESCs or (Table 1B) days 2-4 of growth factor treatment for iPSCs. Definitive endoderm was treated with either 500 ng/ml of FGF4 alone or 500 ng/ml of FGF4+Wnt3a. For both HESCs and iPSCs, hindgut spheroids formed much more robustly under FGF4+Wnt3a conditions. […] Over the course of 4 days, FGF4+Wnt3a treated H9 endoderm generated an average of 4.5 fold more spheroids than that treated with FGF4 alone.
(§5) Generation of hindgut spheroids was tracked for days 2-5 of growth factor treatment (H9 hESCs, Table 1A) or days 2-4 of growth factor treatment (iPSCs, Table 1B) for endoderm being given either 500 ng/ml FGF4 alone or 500 ng/ml FGF4+Wnt3a. In both cell lines, hindgut spheroids were much more robustly generated in FGF4+Wnt3a conditions. Over the course of 4 days, FGF4+Wnt3a treated H9 endoderm generated an average of 4.5 fold more spheroids than FGF4 treated alone.
(§6) Directed differentiation into hindgut and intestinal organoids. After differentiation into definitive endoderm, cells were incubated in 2% dFBS-DMEM/F12 with either 50 or 500 ng/ml FGF4 and/or 50 or 500 ng/ml Wnt3a (R&D Systems) for 2-4 days. After 2 days with treatment of growth factors, 3-dimensional floating spheroids were present in the culture. 3-dimensional spheroids were transferred into an in vitro system previously described to support intestinal growth and differentiation. Briefly, spheroids were embedded in Matrigel (BD Bioscience #356237) containing 500 ng/ml R-Spondin1 (R&D Systems), 100 ng/ml Noggin (R&D Systems) and 50 ng/ml EGF (R&D Systems). After the Matrigel solidified, media (Advanced DMEM/F12 (Invitrogen) supplemented with L-Glutamine, […], N2 supplement (R&D Systems), B27 supplement (Invitrogen), and Pen/Strep containing growth factors was overlaid and replaced every 4 days.

[6] = test system: iPSC-3.5; experiment: Hindgut spheroid formation from iPSC-3.5 definitive endoderm after growth factor treatment; conditions: 500 ng/ml; for Average # organoids per well / Total # organoids (# organoids/wells counted): iPSC-3.5 definitive endoderm
Experimental: as §3, §4, §5, §6

[7] = 500 ng/ml, 2 days (48 h) of GF treatment
[8] = 500 ng/ml, 3 days (72 h) of GF treatment
[9] = 500 ng/ml, 4 days (96 h) of GF treatment
[10] = 500 ng/ml, 5 days (120 h) of GF treatment

DKK1
[Diff'd-iPSC3.4] vs [Undiff d-iPSC3.4] (folds), variation of transcript level during DE formation [1]: 7.27 folds | DIFF'D-H9] VS [IFF'D-H9] (folds), variation of transcript level during DE formation [2]: 9.66 folds | [DIFF'D-IPSC3.12] VS [IFF'D-IPSC3.12] (folds), variation of transcript level during DE formation [3]: 6.27 folds

NODAL
[Diff'd-iPSC3.4] vs [Undiff d-iPSC3.4] (folds), variation of transcript level during DE formation [1]: 5.00 folds | DIFF'D-H9] VS [IFF'D-H9] (folds), variation of transcript level during DE formation [2]: 5.66 folds | [DIFF'D-IPSC3.12] VS [IFF'D-IPSC3.12] (folds), variation of transcript level during DE formation [3]: 5.77 folds

NPPB
[Diff'd-iPSC3.4] vs [Undiff d-iPSC3.4] (folds), variation of transcript level during DE formation [1]: 3.57 folds | DIFF'D-H9] VS [IFF'D-H9] (folds), variation of transcript level during DE formation [2]: 2.88 folds | [DIFF'D-IPSC3.12] VS [IFF'D-IPSC3.12] (folds), variation of transcript level during DE formation [3]: 3.62 folds

B1: Wnt3a: soluble Wnt ligand (R&D Systems), growth factor known to posteriorize endoderm (protein, UniProt P56704 19-352, looked up)
Protein Wnt-3a: SYPIWWSLAVGPQYSSLGSQPILCASIPGLVPKQLRFCRNYVEIMPSVAEGIKIGIQECQHQFRGRRWNCTTVHDSLAIFGPVLDKATRESAFVHAIASAGVAFAVTRSCAEGTAAICGCSSRHQGSPGKGWKWGGCSEDIEFGGMVSREFADARENRPDARSAMNRHNNEAGRQAIASHMHLKCKCHGLSGSCEVKTCWWSQPDFRAIGDFLKDKYDSASEMVVEKHRESRGWVETLRPRYTYFKVPTERDLVYYEASPNFCEPNPETGSFGTRDRTCNVSSHGIDGCDLLCCGRGHNARAERRREKCRCVFHWCCYVSCQECTRVYDVHTCK
induction of hindgut marker CDX2 expression / posterior fate [4]: neither factor alone was sufficient to robustly promote a posterior fate; also recorded: modest changes in CDX2 expression | in vitro gut-tube morphogenesis / spheroid formation ([5]; hESC definitive endoderm, 500 ng/ml): never observed; also recorded: never formed spheroids; also recorded: not observed | spheroid formation ([6]; iPSC definitive endoderm): never formed spheroids

B2: FGF4: fibroblast growth factor 4, soluble growth factor (R&D Systems) known to posteriorize endoderm (protein, UniProt P08620 31-206, looked up)
Fibroblast growth factor 4: APTAPNGTLEAELERRWESLVALSLARLPVAAQPKEAAVQSGAGDYLLGIKRLRRLYCNVGIGFHLQALPDGRIGGAHADTRDSLLELSPVERGVVSIFGVASRFFVAMSSKGKLYGSPFFTDECTFKEILLPNNYNAYESYKYPGMFIALSKNGKTKKGNRVSPTMKVTHFLPRL
induction of hindgut marker CDX2 expression / posterior fate [4]: neither factor alone was sufficient to robustly promote a posterior fate; also recorded: modest changes in CDX2 expression | CDX2 staining of spheroids / 3D structures ([5]; CDX2 immunostaining of treated DE cultures): weakly CDX2+ | fold fewer spheroids generated (versus FGF4+Wnt3a treated cultures) ([5]; Table 1A, H9 hESC definitive endoderm): 4-10 fold | Average # organoids per well [5, 7]: 0 | Total # organoids (# organoids/wells counted) [5, 7]: 0/5 | Average # organoids per well [5, 8]: 0 | Total # organoids (# organoids/wells counted) [5, 8]: 0/5 | Average # organoids per well [5, 9]: 8.8 | Total # organoids (# organoids/wells counted) [5, 9]: 44/5 | Average # organoids per well [5, 10]: 4.75 | Total # organoids (# organoids/wells counted) [5, 10]: 19/4 | Average # organoids per well ([6]; 2 days (48 h) of GF treatment): 0 | Total # organoids (# organoids/wells counted) ([6]; 2 days (48 h) of GF treatment): 0/4 | Average # organoids per well ([6]; 3 days (72 h) of GF treatment): 2.5 | Total # organoids (# organoids/wells counted) ([6]; 3 days (72 h) of GF treatment): 10/4 | Average # organoids per well ([6]; 4 days (96 h) of GF treatment): 3.5 | Total # organoids (# organoids/wells counted) ([6]; 4 days (96 h) of GF treatment): 14/4
